Data on one molecule can be found in US20180208655A1 (VENTANA MEDICAL SYSTEMS, published 2018).

The target in the experiment is T1, human GPNMB (transmembrane glycoprotein NMB) (human, UniProt Q14956 23-572).
T1 construct: Endogenous GPNMB in human FFPE tissues and cells (IHC), A375 cell lysate (Western blot) and A375 cells (flow cytometry)
T1 sequence: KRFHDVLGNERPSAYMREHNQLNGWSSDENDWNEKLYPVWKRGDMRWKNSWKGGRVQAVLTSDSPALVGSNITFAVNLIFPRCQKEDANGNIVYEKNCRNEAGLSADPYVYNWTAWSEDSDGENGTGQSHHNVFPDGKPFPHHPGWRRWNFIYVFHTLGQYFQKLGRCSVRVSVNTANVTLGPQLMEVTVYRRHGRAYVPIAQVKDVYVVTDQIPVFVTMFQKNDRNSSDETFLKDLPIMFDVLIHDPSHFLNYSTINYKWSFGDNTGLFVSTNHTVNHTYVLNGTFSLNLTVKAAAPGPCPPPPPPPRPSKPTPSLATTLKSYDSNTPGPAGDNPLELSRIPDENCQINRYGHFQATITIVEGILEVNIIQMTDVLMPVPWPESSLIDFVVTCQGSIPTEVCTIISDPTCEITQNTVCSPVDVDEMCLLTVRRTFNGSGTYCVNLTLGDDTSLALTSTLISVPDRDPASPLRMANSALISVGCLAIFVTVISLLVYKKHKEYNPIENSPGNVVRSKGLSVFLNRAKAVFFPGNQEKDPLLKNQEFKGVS
Description: IHC screening of recombinantly expressed clones (after ELISA screening on the GPNMB antigen). Background: ELISA stands for enzyme-linked immunosorbent assay.

B1: rabbit anti-human GPNMB monoclonal antibody (SP299) (antibody, V domains shown)
VH: QSLEESGGGLVKPGGTLTLICTVSGIDLSTYGVIWVRQAPREGLEWIGFITRSGTTDYAAWANGRFTISKTSTTVDLKIASLTAADTATYFCARGGYRFNLWGHGTLVTVSS
VL: DPVMTQTPASVSEPVGGTVTIKCQASQSIYSYLAWYQQKPGQPPKLLIYKASSLESGVPSRLSGSGSGTEFTLTISDLECADAATYYCQGGYISTTVSFGYGFGGGTEVVVK
notes: also called anti-GPNMB antibody SP299; Anti-GPNMB monoclonal antibody (SP299)
Regarding B1, the binding result is “binds”.
